Experimental data from patent US12173061B2, “Compositions and methods for treatment of chronic lung diseases” (Board of Regents, The University of Texas System, priority 2021, dated 2024).
“Also recorded” adds a separate entry of the source.

How the values were obtained:
[1] = system: fLfs isolated from IPF lungs (hfLfs); test: Pro-fibrogenic marker expression in fLfs in vitro (immunoblot and mRNA); type: cell-based, human; conditions: 2 μg/ml, 48 h, immunoblot
Procedure: FIGS. 3A-3B. Antibodies specific for M9 inhibited pro-fibrogenic markers expression in fLfs in vitro. hfLfs were serum starved and treated with PBS or 2 μg/ml M9 antibody (M9Ab), or 2 μg/ml M9Ab plus 20 μM CSP7 for 48 hours (FIG. 3A). After treatment, cells were harvested and cell lysates were immunoblotted for pro-fibrogenic markers and M9, and 3-actin was used as loading control.
FIG. 4. […]
FIGS. 7A-7M. […] Lung volumes (FIG. 7B) were measured by quantitative-CT renditions, and lung compliance (FIG. 7C) and elastance (FIG. 7D) were measured using a flexiVent system. […] Statistical significance (*P<0.05, **P<0.01, ***P<0.001 and ****P<0.0001) was assessed by one-way ANOVA with Turkey's multiple comparison.
FIGS. 9A-9O. […] FIG. 9B: Lung volumes were measured by quantitative-CT renditions. Lung compliance (FIG. 9C) and elastance (FIG. 9D) were measured using a flexiVent system. […] Statistical significance (*P<0.05, **P<0.01, ***P<0.001 and ****P<0.0001) was assessed by one-way ANOVA with Turkey's multiple comparison. fLfs isolated from IPF lungs treated with PBS or recombinant full length M9 (rM9^FL) protein (2 μg/ml) for 48 h in vitro were tested for pro-fibrogenic proteins (FIG. 9L). fLfs (from IPF lungs) treated with PBS or extracellular domain of rM9^FL protein (rM9^ECD) as in FIG. 9L were tested for pro-fibrogenic proteins (FIG. 9N). […]

[2] = system: BLM-induced pulmonary fibrosis; test: BLM-induced established pulmonary fibrosis in mice, treatment d14-d21; type: in vivo; conditions: for BLM-induced pulmonary fibrosis (overall): mice, 1.0 U/kg BLM IT, protein 7.5 mg/kg/d IP daily for 7 days starting d14
Procedure: FIGS. 9A-9O. M9 peptide and protein mitigated BLM-induced pulmonary fibrosis. Mice exposed to saline or 1.0 U/kg BLM by intratracheal instillation were treated with or without M9 peptide HGHVDPVKTPKI (SEQ ID NO: 4) (10 mg/kg/d) and M9 protein (SEQ ID NO: 1) 7.5 mg/kg/d) via IP injection daily for 7 days starting d14 after BLM injury. FIG. 9A: Representative micro-CT images at d21 after BLM exposure. FIG. 9B: Lung volumes were measured by quantitative-CT renditions. Lung compliance (FIG. 9C) and elastance (FIG. 9D) were measured using a flexiVent system. Lung weights (FIG. 9E) and body weights (FIG. 9F) are presented as bar graphs. Lung homogenates were tested for hydroxyproline (FIG. 9G), soluble collagen (FIG. 9H), pro-fibrogenic marker proteins (FIG. 9I) and mRNAs (FIG. 9J). Bars indicate mean±SD. Statistical significance (*P<0.05, **P<0.01, ***P<0.001 and ****P<0.0001) was assessed by one-way ANOVA with Turkey's multiple comparison. fLfs isolated from IPF lungs treated with PBS or recombinant full length M9 (rM9^FL) protein (2 μg/ml) for 48 h in vitro were tested for pro-fibrogenic proteins (FIG. 9L). fLfs (from IPF lungs) treated with PBS or extracellular domain of rM9^FL protein (rM9^ECD) as in FIG. 9L were tested for pro-fibrogenic proteins (FIG. 9N). The survival the mice treated with rM9^FL is shown FIG. 9M.
FIGS. 10A-10K. UNC5A (“U5”) peptide/protein mitigated BLM-induced pulmonary fibrosis. Mice exposed to saline or 1.0 U/kg BLM by intratracheal instillation were treated with or without U5 peptide (50 residues, SEQ ID NO: 7) (10 mg/kg/d) and full length U5 protein (SEQ ID NO: 5) (7.5 mg/kg/d) via IP injection daily for 7 days starting d14 after BLM injury. FIG. 10A: Representative micro-CT images at d21 after BLM exposure. FIG. 10B: Lung volumes were measured by quantitative-CT renditions. Lung compliance (FIG. 10C) and elastance (FIG. 10D) were measured using a flexiVent system. Lung weights (FIG. 10E) and body weights (FIG. 10F) are presented as bar graphs. Lung homogenates were tested for hydroxyproline (FIG. 10G), soluble collagen (FIG. 10H), pro-fibrogenic marker proteins (FIG. 10I) and mRNAs (FIG. 10J). Bars indicate mean±SD. Statistical significance (*P<0.05, **P<0.01, ***P<0.001 and ****P<0.0001) was assessed by one-way ANOVA with Turkey's multiple comparison.
FIGS. 11A-11K. ALG5 (“A5”) protein mitigated BLM-induced pulmonary fibrosis. Mice exposed to saline or 1.0 U/kg BLM by intratracheal instillation were treated with or without A5 protein (SEQ ID NO: 9) (7.5 mg/kg/d) via IP injection daily for 7 days starting d14 after BLM injury. FIG. 11A: Representative micro-CT images at d21 after BLM exposure. FIG. 11B: Lung volumes were measured by quantitative-CT renditions. Lung compliance (FIG. 11C) and elastance (FIG. 11D) were measured using a flexiVent system. Lung weights (FIG. 11E) and body weights (FIG. 11F) are presented as bar graphs. Lung homogenates were tested for hydroxyproline (FIG. 11G), soluble collagen (FIG. 11H), pro-fibrogenic marker proteins (FIG. 11I) and mRNAs (FIG. 11J). Bars indicate mean±SD. *P<0.05, **P<0.01, ***P<0.001 and ****P<0.0001 were obtained by one-way ANOVA with Turkey's multiple comparison.
FIGS. 12A-12E. WT mice with BLM-PF were treated with or without rM9^ECD (1.5 mg/kg) via intratracheal (IT) instillation daily for 7 d starting d 14 after BLM. Survival (FIG. 12A), body weights (FIG. 12B), lung volumes (FIG. 12C) and lung weights (FIG. 12D) were measured on d 21 post-BLM. Lung homogenates were tested for soluble collagen (FIG. 12E).
FIGS. 13A-13B. FIG. 13A: fLfs (IPF) treated with PBS or M9^mAb (2 μg/ml) or control IgG, tested for pro-fibrogenic proteins (i) and mRNAs (ii). FIG. 13B: WT mice with BLM-PF were left untreated, or intraperitoneal (IP) injected with control IgG or M9^mAb (2.5 mg/kg) daily for 7 d starting 14 d after IT BLM. Body weights (i) and total lung hydroxyproline (ii), and soluble collagen (iii) were measured. […]

[3] = protein 7.5 mg/kg/d IP, 7 days starting d14 after BLM
[4] = protein 7.5 mg/kg/d IP, 7 days starting d14 after BLM, flexiVent, d21

B1: rM9^ECD: recombinant extracellular domain of human MEGF9 (SEQ ID NO: 102) (protein, listed as Homo sapiens)
chain: MGWSCIILFLVATATGVHSAAVASAASAGNVTGGGGAAGQVDASPGPGLRGEPSHPFPRATAPTAQAPRTGPPRATVHRPLAATSPAQSPETTPLWATAGPSSTTFQAPLGPSPTTPPAAERTSTTSQAPTRPAPTTLSTTTGPAPTTPVATTVPAPTTPRTPTPDLPSSSNSSVLPTPPATEAPSSPPPGHQWPVAKMPQKYLGKYACESNLKSKYLPLTQPVMNLRVSEAVKTEYVCNCSVVGSLNVNRCNQTTGQCECRPGYQGLHCETCKEGFYLNYTSGLCQPCDCSPHGALSIPCNSSGKCQCKVGVIGSICDRCQDGYYGFSKNGCLPCQCNNRSASCDALTGACLNCQENSKGNHCEECKEGFYQSPDATKECLRCPCSAVTSTGSCSIKSSELEPECDQCKDGYIGPNCNKCENGYYNFDSICRKCQCHGHVDPVKTPKICKPESGECINCLHNTTGFWCENCLEGYVHDLEGNCIKKEVILPTPEGSTILVSNASLTTSVPTPVINSTFTPTTLQTIFSVSTSENSTSALADVSWTQFN
- pro-fibrogenic marker proteins (Col1, FN, TN-C and α-SMA) in fLfs [1]: reduced
- lung function ([2]; 1.5 mg/kg intratracheal (IT) instillation daily for 7 d starting d 14 after BLM): improved
- existing BLM-induced PF (overall) ([2]; WT mice with BLM-PF, 1.5 mg/kg intratracheal (IT) instillation daily for 7 d starting d 14, d 21, 1.5 mg/kg): resolved; also recorded: resolution
- survival rate ([2]; mice with BLM-induced existing PF treated with extracellular domain protein, dose not printed (FIG. 9)): significantly increased

B2: M9 protein: recombinant full length human MEGF9 protein (SEQ ID NO: 1) (protein, listed as Homo sapiens)
chain: MNGGAERAMRSLPSLGGLALLCCAAAAAAAAVASAASAGNVTGGGGAAGQVDASPGPGLRGEPSHPFPRATAPTAQAPRTGPPRATVHRPLAATSPAQSPETTPLWATAGPSSTTFQAPLGPSPTTPPAAERTSTTSQAPTRPAPTTLSTTTGPAPTTPVATTVPAPTTPRTPTPDLPSSSNSSVLPTPPATEAPSSPPPEYVCNCSVVGSLNVNRCNQTTGQCECRPGYQGLHCETCKEGFYLNYTSGLCQPCDCSPHGALSIPCNSSGKCQCKVGVIGSICDRCQDGYYGFSKNGCLPCQCNNRSASCDALTGACLNCQENSKGNHCEECKEGFYQSPDATKECLRCPCSAVTSTGSCSIKSSELEPECDQCKDGYIGPNCNKCENGYYNFDSICRKCQCHGHVDPVKTPKICKPESGECINCLHNTTGFWCENCLEGYVHDLEGNCIKKEVILPTPEGSTILVSNASLTTSVPTPVINSTFTPTTLQTIFSVSTSENSTSALADVSWTQFNIIILTVIIIVVVLLMGFVGAVYMYREYQNRKLNAPFWTIELKEDNISFSSYHDSIPNADVSGLLEDDGNEVAPNGQLTLTTPIHNYKA
- pro-fibrogenic marker proteins (Col1, FN, TN-C and α-SMA) in fLfs [1]: reduced
- survival rate ([2]; mice with BLM-induced existing PF, full length protein 7.5 mg/kg/d IP): significantly increased
- BLM-induced pulmonary fibrosis (overall) ([2]; d21): resolved; also recorded: mitigated
- BLM-induced fibrogenic marker proteins (Col1, FN, TN-C, α-SMA) in whole lung homogenates [2, 3]: marked inhibition
- body weight [2, 3]: improvement
- collagen and other extracellular matrix deposits (Trichrome staining of lung sections) [2, 3]: remarkable reduction
- fibrogenic marker transcripts in whole lung homogenates [2, 3]: marked inhibition
- lung weight [2, 3]: reduction
- lung compliance [2, 4]: improved
- lung elastance [2, 4]: improved
- whole lung total hydroxyproline ([2]; protein 7.5 mg/kg/d IP, 7 days starting d14 after BLM, lung homogenates): significant inhibition
- lung volume ([2]; protein 7.5 mg/kg/d IP, 7 days starting d14 after BLM, quantitative CT, d21): improved

B3: A5^ECD: recombinant extracellular domain of A5 (ECD of hALG5) (protein, listed as Homo sapiens)
chain: MTTATKMPALHRHEEEKFFLNAKGQKETLPSIWDSPTKQLSVVVPSYNEEKRLPVMMDEALSYLEKRQKADPAFTYEVIVVDDGSKDQTSKVAFKYCQKYGSDKVRVITLVKNRGKGGAIRMGIFSSRGEKILMADADGATKFPDVEKLEKGLNDLQPWPNQMAIACGSRAHLEKESIAQRSYFRTLLMYGFHFLVWFLCVKGIRDTQCGFKLFTREAASRTFSSLHVERWAFDVELLYIAQFFKIPIAEIAVNWTEIEGSKLVPFWSWLQMGKDLLFIRLRYLTGAWRLEQTRKMN
- BLM-induced pulmonary fibrosis (overall) ([2]; d21): mitigated
